The target of experiment [1] is T1, HLA-A2.1 (HLA-A*0201) on the surface of T2 cells (human).
T1 construct: also called HLA-A2 on T2
As to the kind of experiment: T2 stabilisation assay, flow cytometry. For orientation: In flow cytometry, cells or beads pass a laser one at a time.

For experiment [2], the target named is T2, HLA-A2.1 heavy chain with I125-labeled beta2-microglobulin (heterotrimer dissociation assay) (human, I^125-labeled).
T2 construct: T1/2 is the half-time of dissociation of labeled beta2-microglobulin from the heavy chain/peptide/beta2-microglobulin complex; also called HLA-A2.1 heavy chain / beta2-microglobulin complex
As to the kind of experiment: I125-beta2-microglobulin dissociation assay.

For experiment [3], the target named is T1, HLA-A2.1 (HLA-A*0201) on the surface of …. As to the kind of experiment: T2 stabilisation assay, indirect flow cytometry with BB7.2 (FIG. 34).
Experiment [4] has as its target T2, HLA-A2.1 heavy chain with I125-labeled …. As to the kind of experiment: dissociation of I125-labeled beta2-microglobulin from the heavy chain/peptide/beta2-microglobulin complex, HPLC gel filtration. In general terms: Size exclusion chromatography separates by hydrodynamic size, large species first.

With KLNDILLIQL (also called PR71) [PR7I peptide of proteinase 3 (amino acid 115-124, Ile 119 variant)], the binding result in experiment [1] is “binds”.

With KLNDVLLIQL [PR7V peptide of proteinase 3 (amino acid 115-124, Val 119 variant)], in experiment [1], the binding result was “binds”.

Take SLWRRPFNV [MY1 peptide of myeloperoxidase]: the binding result in experiment [2] and in experiment [3] was “binds” throughout.

For the molecule LIQPFMFRL [MY5 peptide of myeloperoxidase], the binding result in experiment [2] and in experiment [3] was “binds” throughout.

With LLSYFKQPV [MY3 peptide of myeloperoxidase], the binding result in experiment [2] and in experiment [3] was “binds” throughout.

As for RLFEQVMRI [MY4 peptide of myeloperoxidase], the binding result in experiment [2] and in experiment [3] was “binds” in each case.

As to KLLLALAGL [MY2 peptide of myeloperoxidase], the binding result in experiment [2] and in experiment [3] was “binds” throughout.

With VLQELNVTV (Synthetic peptide, minimum 95% purity) [PR1 (aa 169-177) peptide of proteinase 3], the T1/2 in experiment [4] is 24.3 h.

In experiment [4], RLFPDFFTRV [PR2 peptide of proteinase 3] showed a T1/2 of 2.33 h.

These data come from patent US20060045883A1 (published 2006).
